Laboratory results: patent publication CN117396514A (ELEKTA S R L, dated 2024)

B1: 单价(单臂)抗MerTK抗体MTK-16.2 (Fc LALAPS) (antibody, V domains shown)
VH: QVQLVQSGSELKKPGASVKVSCKASGYTFTNHGMNWVRQAPGQGLEWMGWINTYTGEPTYADDFKGRFVFSLDTSVSTAYLQISSLKAEDTAVYYCARKGVTAARYFDYWGQGTLVTVSS
VL: DIQMTQSPSSLSASVGDRVTITCRASQNVRTAVAWYQQKPGKAPKRLIYLASNRHTGVPSRFSGSGSGTEFTLTISNLQPEDFATYYCLQHWNYPLTFGGGTKLEIK
modifications: Dylight650 conjugate in the FACS binding assay (site not stated)
B2: 二价(全IgG)抗MerTK抗体MTK-16.2 (Fc LALAPS) (antibody, V domains shown)
VH: B1 VH
VL: DIQMTQSPSSLSASVGDRVTITCRASQNVRTAVAWYQQKPGKAPKRLIYLASNRHTGVPSRFSGSGSGTEFTLTISNLQPEDFATYYCLQHWNYPLTFGGGTKLEIKR
modifications: Dylight650 conjugate in the FACS binding assay (site not stated)
B3: 单价(单臂)抗MerTK抗体MTK-33.11 (Fc LALAPS) (antibody, V domains shown)
VH: QVQLVQSGAEVKKPGASVKVSCKASGYTFTSYWMHWVRQAPGQGLEWIGVIDPSDNYINYNQKFQGRVTMTRDTSTSTVYMELSSLRSEDTAVYYCAREAWTRGYFDYWGQGTLVTVSS
VL: DIQMTQSPSSLSASVGDRVTITCQASRSVRNTVAWYQQKPGKAPKLLIYYASNRYTGVPSRFSGSGSGTDFTFTISSLQPEDIATYYCQQDYRSPFTFGQGTKLEIK
modifications: Dylight650 conjugate in the FACS binding assay (site not stated)

Legend:
人MerTK, M2c分化的人巨噬细胞上 [1] = biological target: T1, 人MerTK, M2c分化的人巨噬细胞上 (human, UniProt Q12866 21-999); assay: cell-based or functional assay
T1 sequence: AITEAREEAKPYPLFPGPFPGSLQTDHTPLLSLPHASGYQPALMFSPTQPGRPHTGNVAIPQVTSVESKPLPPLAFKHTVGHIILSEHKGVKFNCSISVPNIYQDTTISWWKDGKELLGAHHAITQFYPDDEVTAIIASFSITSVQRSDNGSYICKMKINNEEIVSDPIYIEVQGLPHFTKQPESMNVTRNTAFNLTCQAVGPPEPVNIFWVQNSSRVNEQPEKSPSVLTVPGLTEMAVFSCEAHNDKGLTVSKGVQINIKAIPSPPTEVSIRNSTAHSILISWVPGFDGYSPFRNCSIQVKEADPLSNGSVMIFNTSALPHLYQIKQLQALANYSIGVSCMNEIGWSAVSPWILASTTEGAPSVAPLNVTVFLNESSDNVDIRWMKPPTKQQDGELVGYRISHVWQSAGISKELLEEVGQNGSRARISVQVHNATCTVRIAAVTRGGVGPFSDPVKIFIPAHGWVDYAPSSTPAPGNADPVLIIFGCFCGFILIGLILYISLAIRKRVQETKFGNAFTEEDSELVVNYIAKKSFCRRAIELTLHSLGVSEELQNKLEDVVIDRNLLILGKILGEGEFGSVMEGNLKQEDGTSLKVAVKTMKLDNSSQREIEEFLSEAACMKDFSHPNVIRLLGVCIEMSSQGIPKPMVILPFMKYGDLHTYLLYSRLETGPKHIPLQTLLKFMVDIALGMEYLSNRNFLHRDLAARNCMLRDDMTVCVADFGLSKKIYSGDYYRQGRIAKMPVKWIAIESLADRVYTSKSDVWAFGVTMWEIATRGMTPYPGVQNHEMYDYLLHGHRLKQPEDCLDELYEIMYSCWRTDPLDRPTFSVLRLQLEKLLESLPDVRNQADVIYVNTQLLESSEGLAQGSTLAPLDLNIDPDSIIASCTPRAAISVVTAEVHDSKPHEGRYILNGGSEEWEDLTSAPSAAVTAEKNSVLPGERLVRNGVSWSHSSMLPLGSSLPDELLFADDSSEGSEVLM

人MerTK, M2c分化的人巨噬细胞上 [2] = biological target: T1, 人MerTK, M2c分化的人巨噬细胞上; assay: FACS, Dylight650-conjugated antibody titrated on M2c differentiated human macrophages; Kd from MFI by Prism (EC50-like)

Binder	胞葬作用 IC50 (efferocytosis of pHrodo-labelled apoptotic Jurkat cells by M2c human macrophages) (人MerTK, M2c分化的人巨噬细胞上 [1])	Kd (人MerTK, M2c分化的人巨噬细胞上 [2])
B1	37.9 nM	~78 nM
B2	0.436 nM	~52 nM
B3	~4.4 nM	–
